Assay results taken from the Immune Epitope Database (IEDB).

Key:
HLA-A*02:06 = test: IEDB peptide-MHC binding, purified MHC/competitive/fluorescence; filed as Kd, often an IC50 or EC50 that approximates it; ≥ and ≤ were set here for values at or beyond the usual limits of such assays; details: source organism: Encephalitozoon cuniculi GB-M1
HLA-A*02:16 = test: as above; details: source organism: Encephalitozoon cuniculi GB-M1
HLA-A*02:01 [1] = test: as above; details: source organism: Encephalitozoon cuniculi GB-M1
HLA-A*69:01 [2] = test: as above; details: source organism: Encephalitozoon cuniculi GB-M1
HLA-A*02:11 = test: as above; details: source organism: Encephalitozoon cuniculi GB-M1
HLA-A*02:50 = test: as above; details: source organism: Encephalitozoon cuniculi GB-M1
HLA-A*02:03 = test: as above
HLA-A*02:12 = test: as above; details: source organism: Encephalitozoon cuniculi GB-M1
HLA-A*02:19 = test: as above; details: source organism: Encephalitozoon cuniculi GB-M1
HLA-A*01:01 [3] = test: IEDB peptide-MHC binding, purified MHC/competitive/fluorescence; ≥ and ≤ were set here for values at or beyond the usual limits of such assays
HLA-B*27:05 [4] = test: as above
HLA-A*02:01 [5] = test: IEDB peptide-MHC binding, purified MHC/direct/fluorescence; filed as Kd, often an IC50 or EC50 that approximates it; ≥ and ≤ were set here for values at or beyond the usual limits of such assays
HLA-B*40:01 = test: as above
HLA-B*58:01 = test: as above
HLA-B*15:17 [6] = test: as above
HLA-A*69:01 [7] = test: as above
HLA-B*57:01 = test: as above
HLA-B*15:01 = test: as above
HLA-A*01:01 [8] = test: as above
HLA-B*51:01 = test: as above; details: source organism: Mycobacterium tuberculosis
HLA-B*27:05 [9] = test: as above
HLA-A*03:01 = test: as above
HLA-B*46:01 = test: as above
HLA-A*26:01 = test: as above
HLA-B*08:02 = test: as above
HLA-A*31:01 = test: as above
HLA-B*18:01 = test: as above
HLA-B*48:01 = test: as above
HLA-A*11:01 = test: as above
HLA-B*39:01 = test: IEDB peptide-MHC binding, purified MHC/competitive/fluorescence; filed as Kd, often an IC50 or EC50 that approximates it; ≥ and ≤ were set here for values at or beyond the usual limits of such assays
HLA-B*15:09 = test: as above
HLA-B*07:02 = test: IEDB peptide-MHC binding, purified MHC/direct/fluorescence; filed as Kd, often an IC50 or EC50 that approximates it; ≥ and ≤ were set here for values at or beyond the usual limits of such assays
HLA-B*15:02 = test: as above
HLA-A*68:02 = test: as above
HLA-B*08:01 = test: as above; details: source organism: Giardia lamblia ATCC 50803
HLA-B*08:03 = test: as above
HLA-B*15:17 [10] = test: IEDB peptide-MHC binding, purified MHC/competitive/fluorescence; filed as Kd, often an IC50 or EC50 that approximates it; ≥ and ≤ were set here for values at or beyond the usual limits of such assays; details: source organism: Giardia lamblia ATCC 50803
HLA-B*44:02 = test: IEDB peptide-MHC binding, purified MHC/direct/fluorescence; filed as Kd, often an IC50 or EC50 that approximates it; ≥ and ≤ were set here for values at or beyond the usual limits of such assays; details: source organism: Camelpox virus M-96
HLA-A*26:02 = test: as above; details: source organism: Variola virus
HLA-B*35:01 = test: IEDB peptide-MHC binding, purified MHC/competitive/fluorescence; filed as Kd, often an IC50 or EC50 that approximates it; ≥ and ≤ were set here for values at or beyond the usual limits of such assays; details: source organism: Horsepox virus
[11] = source organism: Vaccinia virus Copenhagen
[12] = source organism: Mycobacterium tuberculosis
[13] = source organism: Mycobacterium tuberculosis F11
[14] = source organism: Corynebacterium efficiens YS-314
[15] = source organism: Mycobacterium tuberculosis str. Haarlem
[16] = source organism: Giardia lamblia ATCC 50803
[17] = source organism: Camelpox virus M-96

Sequence ALEEGRKYV has a Kd (HLA-A*02:06) of 0.0087 µM, a Kd (HLA-A*02:16) of 0.0068 µM and a Kd (HLA-A*02:01 [1]) of 0.654 µM. The Kd (HLA-A*69:01 [2]) was 5.7 µM, the Kd (HLA-A*02:11) was 0.0029 µM and the Kd (HLA-A*02:50) was 0.0123 µM. It also gave a Kd (HLA-A*02:03; source organism: Encephalitozoon cuniculi GB-M1) of 0.029 µM, a Kd (HLA-A*02:12) of 0.0425 µM and a Kd (HLA-A*02:19) of 0.437 µM.

Sequence LTDSLSSQM has an IC50 (HLA-A*01:01 [3]; [11]) of 2.54 µM.

For RLFPGLAIK, the IC50 (HLA-B*27:05 [4]; source organism: Homo sapiens) was 0.146 µM.

Work on GRATICGKY yielded an IC50 (HLA-B*27:05 [4]; source organism: hepatitis C virus genotype 1a) of 0.122 µM.

For MPRLSRNAA, the Kd (HLA-A*02:01 [5]; [12]) was no less than 20 µM, the Kd (HLA-B*40:01; [12]) was no less than 20 µM and the Kd (HLA-B*58:01; [12]) was no less than 20 µM. It also gave a Kd (HLA-B*15:17 [6]; [12]) of no less than 20 µM, a Kd (HLA-A*69:01 [7]; [12]) of no less than 20 µM and a Kd (HLA-B*57:01; [12]) of no less than 20 µM. It also gave a Kd (HLA-B*15:01; [12]) of no less than 20 µM, a Kd (HLA-A*01:01 [8]; [12]) of no less than 20 µM and a Kd (HLA-B*51:01) of 0.655 µM. It also gave a Kd (HLA-B*27:05 [9]; [12]) of no less than 20 µM, a Kd (HLA-A*03:01; [12]) of no less than 20 µM and a Kd (HLA-B*46:01; [12]) of no less than 20 µM. It also gave a Kd (HLA-A*26:01; [13]) of no less than 20 µM, a Kd (HLA-B*08:02; [13]) of no less than 20 µM and a Kd (HLA-A*31:01; [12]) of no less than 20 µM. For the same sequence, the Kd (HLA-B*18:01; [12]) was 8.28 µM, the Kd (HLA-B*48:01; [12]) was no less than 20 µM and the Kd (HLA-A*11:01; [12]) was no less than 20 µM. For the same sequence, the Kd (HLA-B*39:01; [14]) was 0.25 µM and the Kd (HLA-B*15:09; [14]) was no less than 20 µM.

For SMRFESSPH, the Kd (HLA-B*07:02; [15]) was 5.35 µM, the Kd (HLA-B*15:01; [12]) was 0.0093 µM and the Kd (HLA-B*46:01; [12]) was 15.5 µM. It also gave a Kd (HLA-B*15:02; [15]) of 0.049 µM.

IARLVYKAR showed a Kd (HLA-A*02:01 [5]; [16]) of no less than 20 µM, a Kd (HLA-B*40:01; [16]) of no less than 20 µM and a Kd (HLA-B*58:01; [16]) of no less than 20 µM. For the same sequence, the Kd (HLA-A*68:02; [16]) was no less than 20 µM, the Kd (HLA-A*69:01 [7]; [16]) was no less than 20 µM and the Kd (HLA-B*08:01) was no less than 20 µM. It also gave a Kd (HLA-B*57:01; [16]) of no less than 20 µM, a Kd (HLA-B*08:03; [16]) of no less than 20 µM and a Kd (HLA-B*07:02; [16]) of no less than 20 µM. It also gave a Kd (HLA-B*15:01; [16]) of no less than 20 µM, a Kd (HLA-A*01:01 [8]; [16]) of no less than 20 µM and a Kd (HLA-B*27:05 [9]; [16]) of no less than 20 µM. It also gave a Kd (HLA-A*03:01; [16]) of no less than 20 µM, a Kd (HLA-B*46:01; [16]) of no less than 20 µM and a Kd (HLA-A*26:01; [16]) of no less than 20 µM. The Kd (HLA-B*08:02; [16]) was no less than 20 µM, the Kd (HLA-A*31:01; [16]) was 0.0353 µM and the Kd (HLA-B*48:01; [16]) was no less than 20 µM. It also gave a Kd (HLA-A*11:01; [16]) of no less than 20 µM, a Kd (HLA-B*15:17 [10]) of no less than 20 µM and a Kd (HLA-A*02:03; [16]) of no less than 20 µM.

In the case of QSEHSFEEM, the IC50 (HLA-A*01:01 [3]; source organism: Zaire ebolavirus) is reported as 39.6 µM.

With WENGFKVVL the Kd (HLA-A*02:01 [5]; [17]) was no less than 20 µM, the Kd (HLA-B*40:01; [17]) was 0.004 µM and the Kd (HLA-B*58:01; [17]) was no less than 20 µM. The Kd (HLA-B*15:17 [6]; [17]) was no less than 20 µM, the Kd (HLA-A*68:02; [17]) was no less than 20 µM and the Kd (HLA-A*69:01 [7]; [17]) was no less than 20 µM. It also gave a Kd (HLA-B*57:01; [17]) of no less than 20 µM, a Kd (HLA-B*07:02; [17]) of no less than 20 µM and a Kd (HLA-A*01:01 [8]; [17]) of no less than 20 µM. The Kd (HLA-B*27:05 [9]; [17]) was no less than 20 µM, the Kd (HLA-B*44:02) was no less than 20 µM and the Kd (HLA-A*31:01; [17]) was no less than 20 µM. It also gave a Kd (HLA-B*18:01; [17]) of no more than 0.001 µM, a Kd (HLA-B*48:01; [17]) of 0.101 µM and a Kd (HLA-A*11:01; [17]) of no less than 20 µM. It also gave a Kd (HLA-B*39:01; [11]) of 0.493 µM and a Kd (HLA-B*15:09; [11]) of 3.09 µM.

LLRDKDGVY showed a Kd (HLA-A*02:01 [5]; [17]) of no less than 20 µM, a Kd (HLA-B*58:01; [17]) of no less than 20 µM and a Kd (HLA-B*15:17 [6]; [17]) of 0.393 µM. The Kd (HLA-A*68:02; [17]) was no less than 20 µM, the Kd (HLA-A*69:01 [7]; [17]) was no less than 20 µM and the Kd (HLA-B*57:01; [17]) was no less than 20 µM. For the same sequence, the Kd (HLA-B*08:03; source organism: Variola virus) was no less than 20 µM, the Kd (HLA-B*07:02; [17]) was no less than 20 µM and the Kd (HLA-A*26:02) was no less than 20 µM. It also gave a Kd (HLA-B*15:01; [17]) of 0.0693 µM, a Kd (HLA-A*01:01 [8]; [17]) of no less than 20 µM and a Kd (HLA-B*27:05 [9]; [17]) of no less than 20 µM. For the same sequence, the Kd (HLA-B*46:01; [17]) was no less than 20 µM, the Kd (HLA-A*26:01; source organism: Variola virus) was no less than 20 µM and the Kd (HLA-B*15:02; source organism: Variola virus) was 0.043 µM. The Kd (HLA-A*31:01; [17]) was no less than 20 µM, the Kd (HLA-B*48:01; [17]) was no less than 20 µM and the Kd (HLA-A*11:01; [17]) was no less than 20 µM. The Kd (HLA-B*35:01) was 0.0677 µM.
